T1: MICB005.His (human MICB*005 alpha 3 domain, His tagged) (human)
T1 construct: also called huMICB*005 alpha 3-his
T1 chain: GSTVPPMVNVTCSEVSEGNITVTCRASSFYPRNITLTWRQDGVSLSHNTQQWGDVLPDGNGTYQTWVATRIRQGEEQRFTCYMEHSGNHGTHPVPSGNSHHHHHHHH

T2: MICA*008 on MEL-JUSO cells (human, UniProt Q29983 24-317)
T2 chain: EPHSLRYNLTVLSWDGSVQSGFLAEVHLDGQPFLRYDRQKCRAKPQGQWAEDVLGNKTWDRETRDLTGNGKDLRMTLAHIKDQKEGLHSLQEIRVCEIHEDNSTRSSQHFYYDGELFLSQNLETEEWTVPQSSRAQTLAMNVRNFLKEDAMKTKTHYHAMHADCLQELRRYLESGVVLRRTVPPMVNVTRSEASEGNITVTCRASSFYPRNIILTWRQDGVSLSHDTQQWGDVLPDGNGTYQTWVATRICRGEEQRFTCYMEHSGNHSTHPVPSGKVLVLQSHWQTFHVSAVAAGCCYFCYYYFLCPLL

T3: MICA002.His (human MICA*002 alpha 3 domain, His tagged) (human)
T3 construct: also called huMICA*002 alpha 3-his
T3 chain: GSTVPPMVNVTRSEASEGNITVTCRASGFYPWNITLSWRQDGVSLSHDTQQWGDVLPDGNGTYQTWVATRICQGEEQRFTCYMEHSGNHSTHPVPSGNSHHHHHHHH

T4: MICA008.His (human MICA*008 alpha 3 domain, His tagged) (human)
T4 construct: Also used for FPOP (expressed in CHO); also called huMICA*008 alpha 3-his; MICA*008 a3
T4 chain: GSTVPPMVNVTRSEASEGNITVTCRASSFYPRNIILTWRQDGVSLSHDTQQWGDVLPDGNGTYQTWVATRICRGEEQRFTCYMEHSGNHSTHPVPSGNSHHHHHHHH

T5: MICA004.His (human MICA*004 alpha 3 domain, His tagged) (human)
T5 construct: also called huMICA*004 alpha 3-his
T5 chain: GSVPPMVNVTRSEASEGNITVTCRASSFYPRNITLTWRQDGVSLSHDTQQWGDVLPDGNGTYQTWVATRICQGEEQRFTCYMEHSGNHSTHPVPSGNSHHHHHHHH

T6: MICA.008.a3.T204-S297.G243N.mIgG2a.Glyco14 (human; mouse, UniProt Q29983 204-297, engineered N-linked glycosylation site G243N)
T6 construct: not shown: murine IgG2a Fc
T6 chain: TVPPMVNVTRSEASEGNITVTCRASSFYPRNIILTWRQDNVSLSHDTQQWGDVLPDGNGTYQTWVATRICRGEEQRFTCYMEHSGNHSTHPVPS

T7: MICA.008.a3.T204-S297.E215N.mIgG2a.Glyco12 (human; mouse, UniProt Q29983 204-297, engineered N-linked glycosylation site E215N)
T7 construct: not shown: murine IgG2a Fc
T7 chain: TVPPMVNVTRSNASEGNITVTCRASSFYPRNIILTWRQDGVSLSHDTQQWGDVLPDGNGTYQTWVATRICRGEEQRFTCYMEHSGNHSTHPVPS

T8: MICA.008.a3.R202-S297.R202N mIgG2a.Glyco11 (human; mouse, UniProt Q29983 203-297, engineered N-linked glycosylation site R202N)
T8 construct: not shown: murine IgG2a Fc
T8 chain: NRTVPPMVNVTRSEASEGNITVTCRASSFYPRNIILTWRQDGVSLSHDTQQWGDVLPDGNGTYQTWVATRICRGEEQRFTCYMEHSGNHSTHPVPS

T9: MICA.008.a3.T204-S297.R279N.mIgG2a.Glyco16 (human; mouse, UniProt Q29983 204-297, engineered N-linked glycosylation site R279N)
T9 construct: not shown: murine IgG2a Fc
T9 chain: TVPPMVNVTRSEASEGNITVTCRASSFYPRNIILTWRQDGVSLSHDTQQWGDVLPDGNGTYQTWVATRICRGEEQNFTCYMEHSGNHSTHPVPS

T10: MICA.008.a3.T204-S297.C-terminal insert of N298.G299.S300.mIgG2a.Glyco17 (human; mouse, UniProt Q29983 204-297, engineered N-linked glycosylation site at inserted N298)
T10 construct: not shown: murine IgG2a Fc
T10 chain: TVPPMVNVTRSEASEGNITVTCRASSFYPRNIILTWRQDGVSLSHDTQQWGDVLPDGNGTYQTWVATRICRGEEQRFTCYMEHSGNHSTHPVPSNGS

T11: MICA.008.a3.T204-S297.I236T.mIgG2a.Glyco13 (human; mouse, UniProt Q29983 204-297, engineered N-linked glycosylation site created by I236T)
T11 construct: not shown: murine IgG2a Fc
T11 chain: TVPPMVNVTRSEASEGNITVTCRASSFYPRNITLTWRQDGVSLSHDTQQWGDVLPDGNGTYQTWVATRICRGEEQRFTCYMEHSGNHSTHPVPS

T12: human MICA*008 C273S alpha 3 domain, untagged (crystallography) (human, UniProt Q29983 204-297)
T12 construct: C273S removes the unpaired cysteine; made as the wild-type alpha 3 domain; also called MICA*008 C273S α3 domain
T12 chain: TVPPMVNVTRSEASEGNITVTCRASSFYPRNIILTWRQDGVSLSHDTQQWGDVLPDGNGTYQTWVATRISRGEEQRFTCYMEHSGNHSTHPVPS


Assays:
[1] = target: T1, MICB005.His (human MICB*005 alpha 3 …); test: ELISA, coated antigen
[2] = target: T2, MICA*008 on MEL-JUSO cells; test: cell-based or functional assay
[3] = target: MICA*004 on HCC1534 cells (human, UniProt Q29983 24-383); test: cell-based or functional assay
[4] = target: T3, MICA002.His (human MICA*002 alpha 3 …); test: SPR, antibody captured;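 also: SPR with antibody held by surface-bound anti-Fc while His-tagged alpha three domains flow over, Kd derived by fitting a one-to-one binding model to sensograms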
Experimental: (§1) The binding kinetics of the anti-MICA/B antibodies were measured using surface plasmon resonance (SPR) on a Biacore T200 instrument (GE Healthcare). Anti-murine Fc or anti-human Fc (GE Healthcare) was immobilized on a CM5 sensor chip via amine-based coupling using manufacturer provided protocol. Anti-MICA/B antibody was captured by the anti- Fc and the MICA/B alleles were passed over. Antibody binding was measured to human MICA 002, 004, 008 and MICB 005 alpha 3 domains (His tagged, in-house). Sensograms for binding of MICA/B were recorded using an injection time of 2-3 minutes with a flow rate of 30 ml/min, at a temperature of 25° C., and with a running buffer of 10mM HEPES, pH 7.4, 150 mM NaCl, and 0.005% Tween 20. After injection, disassociation of the alpha 3 domain from the antibody was monitored for 10 minutes in running buffer. The surface was regenerated between binding cycles with a 60 ul injection of 10 mM Glycine HCl pH 1.7. […] The data was analyzed using a 1:1 binding model. Sensograms of MICA alleles binding to captured anti-MICA antibody were used to calculate the dissociation constant (Kd).

[5] = target: T4, MICA008.His (human MICA*008 alpha 3 …); test: SPR, antibody captured;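 also: SPR with antibody held by surface-bound anti-Fc while His-tagged alpha three domains flow over, Kd derived by fitting a one-to-one binding model to sensograms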
Experimental: as §1

[6] = target: T5, MICA004.His (human MICA*004 alpha 3 …); test: SPR, antibody captured;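 also: SPR with antibody held by surface-bound anti-Fc while His-tagged alpha three domains flow over, Kd derived by fitting a one-to-one binding model to sensograms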
Experimental: as §1

[7] = target: T6, MICA.008.a3.T204-S297.G243N.mIgG2a.Glyco …; test: ELISA, coated variant;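 also: ELISA with plates coated at 2 ug/ml with MICA*008 alpha 3 glycosylation variants as murine IgG2a Fc fusions, antibody binding detected by HRP anti-human IgG Fc and TMB absorbance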
Experimental: (§2) Hybridoma derived clones binding to all four MICA/B alleles alpha 3 domains were tested by ELISA for binding to the MICA*008 alpha 3 glycosylation variants fused to murine IgG2a Fc fusion. Nunc maxisorp plates were coated with 2 ug/ml of glycosylation variants as previously described. Cloned and recombinantly expressed hybridoma monoclonal antibodies were added to the plates after blocking with a 1X PBS buffer containing 0.5% BSA and 0.05% Tween 20. After incubation, plates were washed multiple times with wash buffer (1X PBS containing 0.05% Tween 20) and secondary antibody (goat anti-human IgG Fc conjugated to HRP) was added. Plates were then washed multiple times with wash buffer again before adding either BioFX TMB Microwell 1 Component Peroxidase or tetramethylbenzidine (TMB) substrate (KPL; Gaithersburg, Md.). After several minutes of incubation, the reaction was stopped with BioFX stop solution or 1 N solution of HCl, respectively. Plates were read on a Spectra MAX 340 plate reader at either 630 or 450 nm respectively (Molecular Devices; Sunnyvale, Calif.).

[8] = target: T7, MICA.008.a3.T204-S297.E215N.mIgG2a.Glyco …; test: ELISA, coated variant;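 also: ELISA with plates coated at 2 ug/ml with MICA*008 alpha 3 glycosylation variants as murine IgG2a Fc fusions, antibody binding detected by HRP anti-human IgG Fc and TMB absorbance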
Experimental: as §2

[9] = target: T8, MICA.008.a3.R202-S297.R202N …; test: ELISA, coated variant;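 also: ELISA with plates coated at 2 ug/ml with MICA*008 alpha 3 glycosylation variants as murine IgG2a Fc fusions, antibody binding detected by HRP anti-human IgG Fc and TMB absorbance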
Experimental: as §2

[10] = target: T9, MICA.008.a3.T204-S297.R279N.mIgG2a.Glyco …; test: ELISA, coated variant;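 also: ELISA with plates coated at 2 ug/ml with MICA*008 alpha 3 glycosylation variants as murine IgG2a Fc fusions, antibody binding detected by HRP anti-human IgG Fc and TMB absorbance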
Experimental: as §2

[11] = target: T10, MICA.008.a3.T204-S297.C-terminal insert …; test: ELISA, coated variant
Experimental: as §2

[12] = target: T11, MICA.008.a3.T204-S297.I236T.mIgG2a.Glyco …; test: ELISA, coated variant
Experimental: as §2

[13] = target: T12, human MICA*008 C273S alpha 3 domain, …; test: complex purified by size exclusion, X-ray structure
Experimental: Fab-MICA*008 complexes were formed from a two-fold molar excess of the MICA*008 α3 domain incubated at 4° C. overnight with the various Fabs. […] Complexes were purified from the excess MICA*008 α3 domain by size-exclusion chromatography using a HiLoad Superdex 75 pg column (GE Healthcare) in 25 mM Tris, pH 7.5, 150 mM NaCl. Fractions containing the complex were pooled and concentrated to 20 mg/mL for crystallization screening trials.

| binding result [1] | % max inhibition of shedding [2] | EC50 of shedding inhibition [2] | % max inhibition of shedding [3] | EC50 of shedding inhibition [3] | Kd [4] | Kd [5] | Kd [6] | binding result [7] | binding result [8] | binding result [9] | binding result [10] | binding result [11] | binding result [12] | binding result [13] | Binder |
| --- | --- | --- | --- | --- | --- | --- | --- | --- | --- | --- | --- | --- | --- | --- | --- |
| binds | 28% | 0.074 µg/mL | 37% | 0.329 µg/mL | 4.5 nM | 15.1 nM | 3 nM | binds | binds | binds | binds | binds | binds |  | 6E12.5 (antibody, V domains shown, Mouse hybridoma antibody; constant regions differ by assay) VH: EVQLVESGGGLVKPGGSLKLSCAASGFTFSDYYMYWVRQTPEKRLEWVATISDGITYTYYSDSVRGRFTISRDNAENTLYLQMSSLKSEDTAMYYCSKGGGSTARGALDFWGQGTSVTVSS VL: DIQMNQSPSSLSASLGDTITITCHASQNIHVWLSWYQQKPGNIPKLLIYGASHLHTGVPSRFSGRGSGTGFTLTISSLQPEDIATYYCLQGQSYPLTFGSGTKVEIK |
|  |  |  |  |  |  |  |  |  |  |  |  |  |  | binds | 6E1.1.12 Fab (Fab, V domains shown, Expressed in E. coli; the fraction with glutamine (not pyroglutamate) at the heavy chain N-terminus was crystallised; also called 6E1 Fab; not shown: human IgG1 CH1 constant domain; human kappa CL constant domain) VH: QGQMQQSGAELVKPGASVKLSCKTSGFTFSDNYISWLKQKPGQSLEWIAWIYAGTGGSSYNQKFRDKAQLTVDTSSRTAYMQLSSLTTEDSAIYYCARHDYYGTSGAWFAYWGRGTLVTVSA VL: DVLMTQTPLSLPVSLGDQASISCRSSQHIVHSNENTYLEWYLQKPGQSPKLLIYKVSNRFSGVPDRFSGSGSGTDFTLKISRVEAEDLGVYYCFQGSHVPWTFGGGTKVEIK |
